Source: US12559545

Assays:
[1] = molecular target: NiVB RBP on live Nipah virus Bangladesh (Nipah virus, strain Bangladesh) (UniProt Q9IH62); experiment: cell-based or functional assay
[2] = molecular target: HeV RBP on live Hendra virus (Hendra virus) (UniProt O89343); experiment: cell-based or functional assay
[3] = molecular target: HeV-RBP head domain (residues 185-604), recombinant soluble (Hendra virus) (UniProt O89343); experiment: BLI on HeV RBP head domain, after first mAb HENV-43
[4] = molecular target: full-length NiVB-RBP expressed on the surface of transfected cells (Nipah virus, strain Bangladesh) (UniProt Q9IH62)
[5] = molecular target: full-length NiVM-RBP expressed on the surface of transfected cells (Nipah virus, strain Malaysia) (UniProt Q9IH62)
[6] = molecular target: full-length HeV-RBP expressed on the surface of transfected cells (Hendra virus) (UniProt O89343)
[7] = molecular target: HeV-RBP head domain (residues 185-604), recombinant soluble (Hendra virus) (UniProt O89343); experiment: BLI on HeV RBP head domain, after first mAb HENV-26
[8] = molecular target: NiVB-RBP head domain (residues 185-602), recombinant soluble (Nipah virus, strain Bangladesh) (UniProt Q9IH62); experiment: ELISA, RBP head domain coated on plate, hybridoma IgG
[9] = molecular target: HeV-RBP head domain (residues 185-604), recombinant soluble (Hendra virus) (UniProt O89343); experiment: as above
[10] = molecular target: NiVM-RBP head domain (residues 183-602), recombinant soluble (Nipah virus, strain Malaysia) (UniProt Q9IH62); experiment: as above
[11] = molecular target: HeV-RBP head domain (residues 185-604), recombinant soluble (Hendra virus) (UniProt O89343); experiment: BLI on HeV RBP head domain, after first mAb HENV-2
[12] = molecular target: HeV-RBP head domain (residues 185-604), recombinant soluble (Hendra virus) (UniProt O89343); experiment: BLI on HeV RBP head domain, after first mAb HENV-19
[13] = molecular target: HeV-RBP head domain (residues 185-604), recombinant soluble (Hendra virus) (UniProt O89343); experiment: BLI on HeV RBP head domain, after first mAb HENV-9
[14] = molecular target: HeV-RBP head domain (residues 185-604), recombinant soluble (Hendra virus) (UniProt O89343); experiment: BLI on HeV RBP head domain, after first mAb HENV-21
[15] = molecular target: HeV-RBP head domain (residues 185-604), recombinant soluble (Hendra virus) (UniProt O89343); experiment: BLI on HeV RBP head domain, after first mAb HENV-32
[16] = molecular target: HeV-RBP head domain (residues 185-604), recombinant soluble (Hendra virus) (UniProt O89343); experiment: BLI on HeV RBP head domain, after first mAb HENV-18
[17] = molecular target: HeV-RBP head domain (residues 185-604), recombinant soluble (Hendra virus) (UniProt O89343); experiment: BLI on HeV RBP head domain, after first mAb HENV-1
[18] = molecular target: HeV-RBP head domain (residues 185-604), recombinant soluble (Hendra virus) (UniProt O89343); experiment: BLI on HeV RBP head domain, after first mAb HENV-10

HENV-26 (antibody)
Area under the curve (neutralization) [1]: 289 | IC50, plaque reduction neutralization of live virus [1]: 0.03 µg/mL | IC80, plaque reduction neutralization of live virus [1]: 0.12 µg/mL | Max % Inhibition (neutralization) [1]: 100% | Area under the curve (neutralization) [2]: 281 | IC50, plaque reduction neutralization of live virus [2]: 0.07 µg/mL | IC80, plaque reduction neutralization of live virus [2]: 0.19 µg/mL | Max % Inhibition (neutralization) [2]: 100% | % of signal of second mAb alone [3]: 109% | EC50 [4]: 0.326 µg/mL | EC50 [5]: 0.326 µg/mL | EC50 [6]: 0.325 µg/mL | % of signal of second mAb alone [7]: -5% | Area under the curve [8]: 10.5 | EC50 [8]: 0.09 µg/mL | Area under the curve [9]: 5.39 | EC50 [9]: 0.14 µg/mL | Area under the curve [10]: 11 | EC50 [10]: 0.07 µg/mL | % of signal of second mAb alone [11]: 97% | % of signal of second mAb alone [12]: 91% | % of signal of second mAb alone [13]: 97% | % of signal of second mAb alone [14]: 99% | % of signal of second mAb alone [15]: 100% | % of signal of second mAb alone [16]: 91% | % of signal of second mAb alone [17]: 97% | % of signal of second mAb alone [18]: 100%
